Source: paper PMC9798254

Key:
[1] = substrate: O=P(O)(O)OC[C@@H](O)[C@H]1O[C@H](OP(=O)(O)O)[C@@H](O)[C@@H](O)[C@@H]1O; assay: purified protein; conditions: 100 mM Tris/HCl pH 7.8, 5 mM MgCl2, 25°C
[2] = substrate: O=P(O)(O)OC[C@@H](O)[C@H]1O[C@@H](OP(=O)(O)O)[C@@H](O)[C@@H](O)[C@@H]1O; assay: purified protein; conditions: 100 mM Tris/HCl pH 7.8, 5 mM MgCl2, 25°C

B1: ecGmhB (Escherichia coli K-12) (protein)
chain: MAKSVPAIFLDRDGTINVDHGYVHEIDNFEFIDGVIDAMRELKKMGFALVVVTNQSGIARGKFTEAQFETLTEWMDWSLADRDVDLDGIYYCPHHPQGSVEEFRQVCDCRKPHPGMLLSARDYLHIDMAASYMVGDKLEDMQAAVAANVGTKVLVRTGKPITPEAENAADWVLNSLADLPQAIKKQQKPAQ
**Q.** What does the source list for B1?
**A.** Km [1]: 117 ± 15 µM; kcat [1]: 3.5 ± 0.2 s⁻¹; kcat/Km [1]: 29900 M⁻¹ s⁻¹; Km [2]: 2.3 ± 0.3 µM; kcat [2]: 35.7 ± 1.1 s⁻¹; kcat/Km [2]: 1.55e+07 M⁻¹ s⁻¹
